Measurements taken from paper PMC3300016.

Experiments:
[1] = molecular target: BPV-1 E1 helicase domain (E1HD), residues 299-605 (bovine papillomavirus (BPV-1)) (UniProt P03116); assay: SEC
[2] = molecular target: T1, E1HD (E1 helicase domain) (bovine papillomavirus BPV-1, UniProt P03116 299-605); assay: gel filtration
[3] = molecular target: T1, E1HD (E1 helicase domain); assay: EMSA

T1 sequence (P03116 299-605): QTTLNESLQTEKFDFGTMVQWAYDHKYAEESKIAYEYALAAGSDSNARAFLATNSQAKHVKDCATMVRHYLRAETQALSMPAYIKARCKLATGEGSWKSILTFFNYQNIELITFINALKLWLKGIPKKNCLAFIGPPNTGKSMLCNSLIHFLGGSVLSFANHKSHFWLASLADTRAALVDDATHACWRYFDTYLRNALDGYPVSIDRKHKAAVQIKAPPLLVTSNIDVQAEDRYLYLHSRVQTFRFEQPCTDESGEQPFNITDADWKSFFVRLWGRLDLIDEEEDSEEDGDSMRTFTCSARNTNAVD

“BPV-1 E1 helicase domain (E1HD), residues 299-605 (from UniProt P03116 299-605) (domain or fragment)” was tested, and the stoichiometry N [1] was 6.

TTTTTTTTTTTTTTTTTT (ssDNA) [T18]: binds [2].

TTTTTTTTTTTTTTTTTTTTTTTTTTTTTT (ssDNA) [T30]: binds [3].
